Eleven molecules from US5837499A, “DNA encoding C5A receptor antagonists having substantially no agonist activity and methods of expressing same” (priority 1995, dated 1998) can be followed below.

The chains are these.
T1: C5a receptor (Homo sapiens, UniProt P21730)
T1 construct: Neutrophils were purified from human peripheral blood; endogenous in cells; host or cells: neutrophils from human peripheral blood
T1 sequence (P21730 1-350): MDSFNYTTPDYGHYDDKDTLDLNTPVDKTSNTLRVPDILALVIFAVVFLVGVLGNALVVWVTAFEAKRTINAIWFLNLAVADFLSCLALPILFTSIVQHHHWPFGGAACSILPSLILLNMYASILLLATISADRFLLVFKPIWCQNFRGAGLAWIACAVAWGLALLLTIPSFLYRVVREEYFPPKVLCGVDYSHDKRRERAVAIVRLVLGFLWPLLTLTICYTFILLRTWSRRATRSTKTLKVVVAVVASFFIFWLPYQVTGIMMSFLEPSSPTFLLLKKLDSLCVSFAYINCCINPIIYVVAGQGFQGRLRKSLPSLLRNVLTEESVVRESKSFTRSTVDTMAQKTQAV

B1: C5a(1-72,T1M,C27S,L72C) (protein, UniProt P01031 678-749, looked up, fragment T1M C27S L72C)
chain: MLQKKIEEIAAKYKHSVVKKCCYDGASVNNDETCEQRAARISLGPRCIKAFTECCVVASQLRANISHKDMQC
modifications: C5a anaphylatoxin
B2: C5a(1-71,T1M,C27S) (protein, UniProt P01031 678-748, looked up, fragment T1M C27S)
chain: MLQKKIEEIAAKYKHSVVKKCCYDGASVNNDETCEQRAARISLGPRCIKAFTECCVVASQLRANISHKDMQ
modifications: C5a anaphylatoxin
notes: comparison agonist
B3: C5a(1-71,T1M,C27S,Q71L) (protein, UniProt P01031 678-748, looked up, fragment T1M C27S Q71L)
chain: MLQKKIEEIAAKYKHSVVKKCCYDGASVNNDETCEQRAARISLGPRCIKAFTECCVVASQLRANISHKDML
modifications: C5a anaphylatoxin
notes: comparison agonist
B4: C5a(1-71,T1M,C27S,Q71R) (protein, UniProt P01031 678-748, looked up, fragment T1M C27S Q71R)
chain: MLQKKIEEIAAKYKHSVVKKCCYDGASVNNDETCEQRAARISLGPRCIKAFTECCVVASQLRANISHKDMR
modifications: C5a anaphylatoxin
notes: comparison agonist
B5: C5a(1-71,T1M,C27S,H67F,Q71C) (protein, UniProt P01031 678-748, looked up, fragment T1M C27S H67F Q71C)
chain: MLQKKIEEIAAKYKHSVVKKCCYDGASVNNDETCEQRAARISLGPRCIKAFTECCVVASQLRANISFKDMC
modifications: C5a anaphylatoxin
B6: C5a(1-71,T1M,C27S,Q71D) (protein, UniProt P01031 678-748, looked up, fragment T1M C27S Q71D)
chain: MLQKKIEEIAAKYKHSVVKKCCYDGASVNNDETCEQRAARISLGPRCIKAFTECCVVASQLRANISHKDMD
modifications: C5a anaphylatoxin
notes: comparison agonist
B7: Analogue 22: dimeric form of analogue No. 8, disulfide linked through the C-terminal cysteines (protein, UniProt P01031 678-748, looked up, fragment T1M C27S Q71C)
chain: MLQKKIEEIAAKYKHSVVKKCCYDGASVNNDETCEQRAARISLGPRCIKAFTECCVVASQLRANISHKDMC
modifications: C5a anaphylatoxin disulfide-linked dimer
notes: dimeric form of analogue No. 8, disulfide linked through the C-terminal cysteines
B8: C5a(1-71,T1M,C27S,Q71H) (protein, UniProt P01031 678-748, looked up, fragment T1M C27S Q71H)
chain: MLQKKIEEIAAKYKHSVVKKCCYDGASVNNDETCEQRAARISLGPRCIKAFTECCVVASQLRANISHKDMH
modifications: C5a anaphylatoxin
notes: comparison agonist
B9: C5a(1-71,T1M,C27S,Q71S) (protein, UniProt P01031 678-748, looked up, fragment T1M C27S Q71S)
chain: MLQKKIEEIAAKYKHSVVKKCCYDGASVNNDETCEQRAARISLGPRCIKAFTECCVVASQLRANISHKDMS
modifications: C5a anaphylatoxin
notes: comparison agonist
B10: C5a(1-70,T1M,C27S,M70C) (protein, UniProt P01031 678-747, looked up, fragment T1M C27S M70C)
chain: MLQKKIEEIAAKYKHSVVKKCCYDGASVNNDETCEQRAARISLGPRCIKAFTECCVVASQLRANISHKDC
modifications: C5a anaphylatoxin

Where a SMILES comes first, the peptide text is derived from it.

The target of the first assay is T1, C5a receptor. The assay is described as follows: Receptor binding assay: displacement of [125I]Bolton-Hunter-labelled C5a from PMNL membranes. Particulars: Table 4, [125I]BH-C5a 4.0 pM, 120 min at 4° C., Cheng-Prusoff. As for the experimental part: C5a and C5a receptor antagonists were tested for their affinity for the C5a receptor. […] PMNLs were resuspended in Hanks balanced salt solution, without Ca^++ and Mg^++ and which contained 10 mM HEPES; at pH 7.3, 2.5 mM MgCl2, 100 units/ml DNAse I, 0.1 mM PMISF, 10 μg/ml aprotonin and 10 μg/ml leupeptin. They were then equilibrated at 400 psi for 20 min at 4° C. in a nitrogen cavitation bomb. After evacuation into 3 volumes 0.5 M KHCO3 containing 25 mM EDTA and the protease inhibitors listed above, the gelatinous material was removed with forceps and the mixture was centrifuged at 400×g for 10 min at 4° C. The resulting supernatant was centrifuged at 50,000×g for 60 min at 4° C. The pellets from the aliquots representing 200×10^6 cells were stored at -70° C. For binding studies, these membranes were resuspended at an equivalent of 20×10^6 cells/ml in 50 mM HEPES at pH 7.3, containing 1 mM CaCl2, 5 mM MgCl2, 0.1 mM PMSF, 0.1% bacitracin and 0.5% BSA.
Nonspecific binding was determined in the presence of 10 nM unlabelled C5a. The binding reaction was initiated by the addition of the PMNL membranes and was continued for 120 min at 4° C. Bound and free radioactivity were separated by vacuum filtration through GF/C glass fiber filters (Whatman), pretreated for 90 min with 0.05% PEI (polyethyleneimine) using a Cell Harvester (Brandel, Gaithersburg, Md.). Filters were washed with 3×5 ml of ice-cold 5 mM Tris buffer at pH 7.4 and counted in a multiwell Gamma counter (Genesys). Data were analyzed using the non-linear regression analysis program, RS/1 (Bolt, Beranek and Newman, Boston) and expressed as IC50 values. The results are set forth below in Table 4 as Ki values using the Cheng-Presoff equation. See Braunwalder et al., supra
Background: Loss of bound radioactivity is the signal in a displacement assay; it reports binding, not function.
As usually defined, the Ki is the dissociation constant of the complex between target and ligand, obtained from inhibition or displacement. A high value points to weaker binding. B1 gave an inhibition constant Ki of 900 pM. Molecule B2 registered a Ki of 3000 pM. The same measure, in the same setting: under B3 stands 35 pM. On the same count and under the same terms, then B4, with 350 pM; and B5, with 100 pM; and B6, with 8500 pM. Still for that read-out and setting: under B7 stands 40 pM; under B8, 150 pM; under B9, 7500 pM.

The target in the next assay is T1, C5a receptor. The assay is described as follows: C5a induced Ca++ rise in fura-2 loaded neutrophils (antagonist IC50 / agonist EC50). The class given is cell-based. Particulars: highest concentration tested; agonist activity was not detected. The text has this: The antagonism of the instant C5a analogues may be quantified as an IC50 in the calcium rise assay disclosed in Agents and Actions 21:375-378 (1987), described in detail in Example 7.
See Hugli et al., CRC Crit. Rev. Immunol. 1:321-326 (1981) and PCT WO 92/10205. A quantitative measure of this property may also be obtained using the calcium rise assay disclosed in Seligmann et al., supra, also described in Example 7. EC50 is a measure of agonistic activity. […] Applicants have not detected agonist activity of the instant C5a analogues up to a concentration of at Least about 8.0×10^-7 M, and preferably at least about 3.0×10^-6 M in the same calcium rise assay.
Recombinant human C5a was dissolved in Hanks buffer containing 0.01% Tween-20, and all stock dilutions of C5a were made in this buffer. The acetoxymethyl ester of fura-2 (fura 2AM, Molecular Probes) was dissolved in DMSO. Neutrophils were purified from human peripheral blood by sedimentation in 6% hetastarch (HESPAN, DuPont, Waukegan, Ill.), followed by counter flow elutriation as described in Chapman-Kirkland et al., J. Immunol. Meth. 142:95-104 (1991). Purified cells (2×10^6 /ml) were mixed with 0.2 uM fura- 2AM and incubated for 30 min at 37° C. in HEPES buffered Hanks solution without calcium or magnesium. Fifteen minutes before the assay, the cell suspension was transferred to a curvette containing a stir bar and calcium was added to 1 mM. The cell suspension was incubated with stirring at 37° C. Assays were terminated within 5 h of cell purification and a standard control response was obtained periodically to insure that the cell responses were not changing over the time of the experiment. The amount of fluorescence was determined using an SLM 8000 spectrofluorometer (SLM-Aminco Instruments, Urbana, Ill.). Curvettes were placed in the fluorometer and after obtaining a baseline for 10 sec, the C5a receptor antagonists to be tested for antagonistic properties were added and any change in fluoresence excitation ratio of 340 nm/380 nm (emission of 510 nm) was measured. Forty seconds after analogue addition, a challenge dose of C5a was added to a final concentration of 100 pM and the resulting change in excitation ratio was measured.
IC50 values were used as a measure of antagonist potency. These values are defined as the concentration of C5a analogue needed to reduce the calcium rise response of the 100 pM C5a challenge dose by 50%. EC50 values were used as a measure of agonist potency. […]
Consider B1, for which the Concentration up to which tested and agonist activity not detected (calcium rise) was above 1500 nM. The same measure, in the same setting: then B5, with above 800 nM; and B10, with above 1000 nM.

The assay is the same for the next values; noted with them: result in words.
Turning to `CC[C@H](C)[C@H](N)C(=O)N[C@@H](CO)C(=O)N[C@@H](Cc1ccccc1)C(=O)N[C@@H](CCCCN)C(=O)N[C@@H](CC(=O)O)C(=O)N[C@@H](CCSC)C(=O)N[C@@H](CCC(N)=O)C(=O)N[C@@H](CC(C)C)C(=O)NCC(=O)N[C@@H](CCCNC(=N)N)C(=O)O` [Decapeptide, reference compound] (H-ISFKDMQLGR-OH), the “Agonist / antagonist character” value was “significant agonist activity”.
